Data taken from publication PMC2865030 (Biochemical Journal, 2008).

B1: Tah1 (TPR-containing protein associated with Hsp90) (natural protein)
chain: MSQFEKQKEQGNSLFKQGLYREAVHCYDQLITAQPQNPVGYSNKAMALIKLGEYTQAIQMCQQGLRYTSTAEHVAIRSKLQYRLELAQGAVGSVQIPVVEVDELPEGYDRS

Tests used:
Assay in all cases: ITC
[1] = biological target: B1
[2] = biological target: yeast Ssa1 (Hsp70, His-tagged) (yeast, UniProt P10591 1-642)
[3] = biological target: human Hsp90β (His-tagged) (human, UniProt P08238 1-724)
human Hsp90α = human Hsp90α (human, UniProt P07900 1-732)

Sequence of human Hsp90β (His-tagged) (P08238 whole entry): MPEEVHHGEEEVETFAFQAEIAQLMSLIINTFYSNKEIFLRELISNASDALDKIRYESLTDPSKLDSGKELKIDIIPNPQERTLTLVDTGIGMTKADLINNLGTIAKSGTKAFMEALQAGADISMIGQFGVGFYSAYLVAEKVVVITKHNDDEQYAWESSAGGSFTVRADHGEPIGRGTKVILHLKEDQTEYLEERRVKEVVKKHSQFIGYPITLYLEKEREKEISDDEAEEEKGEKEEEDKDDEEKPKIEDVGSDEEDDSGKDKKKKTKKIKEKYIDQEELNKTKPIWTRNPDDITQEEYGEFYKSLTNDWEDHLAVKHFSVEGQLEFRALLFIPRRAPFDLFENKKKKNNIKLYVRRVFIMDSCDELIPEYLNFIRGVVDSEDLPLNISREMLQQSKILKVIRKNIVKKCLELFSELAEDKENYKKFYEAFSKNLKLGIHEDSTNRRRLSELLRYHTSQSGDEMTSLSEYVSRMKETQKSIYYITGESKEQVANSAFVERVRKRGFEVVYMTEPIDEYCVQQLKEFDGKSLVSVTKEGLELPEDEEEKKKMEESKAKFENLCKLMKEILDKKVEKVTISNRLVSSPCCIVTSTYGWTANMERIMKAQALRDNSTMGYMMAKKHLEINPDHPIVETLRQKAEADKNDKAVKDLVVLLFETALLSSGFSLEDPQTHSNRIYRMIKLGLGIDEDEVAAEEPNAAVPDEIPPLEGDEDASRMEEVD
Sequence of yeast Ssa1 (Hsp70, His-tagged) (P10591 whole entry): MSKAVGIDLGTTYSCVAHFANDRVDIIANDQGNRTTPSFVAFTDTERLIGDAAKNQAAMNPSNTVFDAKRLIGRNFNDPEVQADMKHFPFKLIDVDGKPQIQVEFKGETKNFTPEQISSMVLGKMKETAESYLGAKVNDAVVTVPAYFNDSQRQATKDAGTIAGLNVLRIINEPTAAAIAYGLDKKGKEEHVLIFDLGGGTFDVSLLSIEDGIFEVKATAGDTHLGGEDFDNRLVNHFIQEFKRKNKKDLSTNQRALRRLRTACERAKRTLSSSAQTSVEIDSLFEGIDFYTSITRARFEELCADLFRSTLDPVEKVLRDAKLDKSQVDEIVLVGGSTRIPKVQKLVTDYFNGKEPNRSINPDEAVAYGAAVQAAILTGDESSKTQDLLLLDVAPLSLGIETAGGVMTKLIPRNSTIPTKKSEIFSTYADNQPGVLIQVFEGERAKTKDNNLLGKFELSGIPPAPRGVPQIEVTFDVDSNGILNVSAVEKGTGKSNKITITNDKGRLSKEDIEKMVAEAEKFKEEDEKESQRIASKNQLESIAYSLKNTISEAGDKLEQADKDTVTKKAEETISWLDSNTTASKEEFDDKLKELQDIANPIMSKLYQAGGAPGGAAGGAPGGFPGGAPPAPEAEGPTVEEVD

| Binder | Kd [1] [µM] | stoichiometry N [1] | other results |
| --- | --- | --- | --- |
| AEGPTVEEVD [AEGPTVEEVD decapeptide (C-terminal end of Ssa1, wild-type sequence)] | 28.9 ± 3.1 | 1.2 | – |
| TEMEEVD [TEMEEVD heptapeptide (C-terminal end of yeast Hsp90)] | 0.95 ± 0.04 | 1.2 | – |
| DDTSRMEEVD [DDTSRMEEVD decapeptide (C-terminal end of human Hsp90α)] | 0.9 ± 0.06 | 1.1 | – |
| EDASRMEEVD [EDASRMEEVD decapeptide (C-terminal end of human Hsp90β)] | 1 ± 0.19 | 0.81 | – |
| MEEVD [MEEVD pentapeptide (C-terminal end of yeast Hsp90)] | – | 1.1 | – |
| VEEVD [VEEVD pentapeptide (C-terminal end of Ssa1)] | 48.8 ± 5.5 | – | – |
| PTVEEVD [PTVEEVD heptapeptide (C-terminal end of Ssa1)] | 10.6 ± 1.4 | 1 | – |
| B1 | – | – | Kd [2]: 16 ± 2.5 µM; Kd [3]: 340 ± 70 nM; stoichiometry N [3]: 0.84; Kd (human Hsp90α): 330 ± 30 nM; stoichiometry N (human Hsp90α): 1.1 |
